Laboratory results reported in publication PMC10936212.

Legend:
[1] = biological target: CosR (Campylobacter jejuni) (UniProt A0A3H9R6A1); assay: fluorescence polarization; details: FP: 10 mM PBS pH 7.4, 5 nM fluoresceinated DNA, 1 ug poly(dI-dC), 25 C
[2] = biological target: Campylobacter jejuni CosR regulator (Campylobacter jejuni); assay: crystal structure; CosR (8 mg/mL) with 21 bp DNA1 duplex (2.6 mg/mL), vapor diffusion, Na-MES pH 6.5, 2.90 Å; the dimer is formed by a crystallographic symmetry operator
[3] = biological target: Campylobacter jejuni CosR regulator (Campylobacter jejuni); assay: cryo-EM structure; single-particle cryo-EM of 20 uM CosR incubated 2 h with 10 uM 40 bp ds-DNA; the class of DNA-free particles (apo-CosR) sorted in silico (build and retrieve), 3.77 Å
[4] = biological target: Campylobacter jejuni CosR regulator (Campylobacter jejuni); assay: crystal structure; CosR (320 uM) with 21 bp DNA2 duplex (192 uM), vapor diffusion, Na-MES pH 6.5, 2.20 Å

In the case of “AATTAAGATATTATTAACCAA (double strand) [DNA2 (fluorescein)]”, the Kd [1] is reported as 2.5 nM.

Substance “Campylobacter jejuni CosR regulator (natural protein)” has a stoichiometry N [2] of 2, a stoichiometry N [3] of 2 and a stoichiometry N [4] of 2.

With “TATTAACCAAAATTAAGATAT (double strand) [DNA1 (fluorescein)]” the Kd [1] was 4.5 nM.
